Legend:
Assay type in all cases: cell-based
[1] = target: T1, human chemokine receptor CCR2 (Homo sapiens, UniProt P41597); experiment: Cellular NanoBiT β-arrestin recruitment assay; conditions: n = 1; read-out: EC50, β-arrestin-2 recruitment, CCR2 activation
T1 construct: expressed in transfected cells; host or cells: HEK293T, transient
Experimental: (PerkinElmer, Groningen, NL).
(§1) Cellular NanoBiT β-arrestin recruitment assays: Chemokine-induced β-arrestin-2 recruitment to chemokine receptors CCR1 and CCR2 was monitored using a nanoluciferase complementation -based assay (NanoBiT, Promega). 17-19 5 x 10^6 HEK293T cells were plated in 10 cm dishes and cultured for 24 h before transfection with vectors encoding for the human chemokine receptor CCR1 or CCR2 C-terminally fused with SmBiT and β-arrestin 2 N-terminally fused with LgBiT. 24 h after transfection cells were harvested, distributed into white 96-well plates (5 × 10^4 cells per well) and incubated for 1 h at 37 °C with compound 23 at concentrations ranging from 10 nM to 10 µM. The endogenous chemokine ligand CCL5 (3 nM, for CCR1) or CCL2 (10 nM, for CCR2) was then added, and luminescence generated upon nanoluciferase complementation in the presence of coelenterazine H was measured with a Mithras LB940 luminometer (Berthold Technologies) for 20 min. […]
(§2) Finally, the top 5% of the identified hits were subsequently docked to a homology model of CCR1 (vide infra). After visual examination of the obtained binding modes 24 hit compounds were identified for further investigation .
(§3) Molecular docking: For the docking studies in the course of our virtual screening campaign, the CCR1 protein was […]
(§4) 27, 28 CCR1 structure was optimized using the Quickprep and structure preparation wizard in MOE 24 using CHARMM27 forcefield. The protein was saved in mol2 format and loaded in GOLD.25, 26 The amino acids defining the IABS were listed in a text file to define the docking cavity. 50 GA runs were performed for docking CCR2-RA-[R] (4-[R]) and SN_12 (43), with the generated solutions clustered based on their RMSD with the threshold set to 0.75 Å using the complete linkage method. Docking runs were performed using ChemScore. […]

[2] = target: T2, human chemokine receptor CCR1 (Homo sapiens, UniProt P32246); experiment: Cellular NanoBiT miniGi recruitment assay; conditions: n = 3; read-out: EC50, miniGi recruitment, CCR1 activation
T2 construct: expressed in transfected cells; host or cells: HEK293T, transient
T2 sequence (P32246 1-355): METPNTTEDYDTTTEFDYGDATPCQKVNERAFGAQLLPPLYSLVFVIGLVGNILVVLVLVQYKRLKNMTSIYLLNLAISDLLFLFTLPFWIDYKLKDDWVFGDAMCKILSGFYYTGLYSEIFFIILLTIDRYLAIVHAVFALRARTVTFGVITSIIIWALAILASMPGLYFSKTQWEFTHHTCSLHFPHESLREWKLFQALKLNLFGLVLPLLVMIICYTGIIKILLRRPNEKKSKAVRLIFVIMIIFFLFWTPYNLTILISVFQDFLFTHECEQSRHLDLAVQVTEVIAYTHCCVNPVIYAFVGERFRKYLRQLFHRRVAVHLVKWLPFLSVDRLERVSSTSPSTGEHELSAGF
Experimental: Technologies) for 20 min.
Cellular NanoBiT miniGi recruitment assay s: Chemokine-induced Gi recruitment to the chemokine receptor CCR1 was monitored using a nanoluciferase complementation -based assay (NanoBiT, Promega). 20 5 x 10^6 HEK293T cells were plated in 10 cm dishes and cultured for 24 h before transfection with vectors encoding for the human chemokine receptor CCR1 C-terminally fused with SmBiT and miniGi (mG, engineered GTPase domain of Gα subunit) N-terminally fused with LgBiT. 24 h after transfection cells were harvested, distributed into white 96 -well plates (5 × 10^4 cells per well) and incubated for 1 h at 37 °C with compound 23 at concentrations ranging from 10 nM to 100 µM. The endogenous chemokine ligand CCL5 (3 nM, for CCR1) was then added, and luminescence generated upon nanoluciferase complementation in the presence of coelenterazine H was measured with a Mithras LB940 luminometer (Berthold Technologies) for 20 min. […]
as §2, §3, §4

[3] = target: T2, human chemokine receptor CCR1; experiment: Cellular NanoBiT β-arrestin recruitment assay; conditions: n = 3; read-out: EC50, β-arrestin-2 recruitment, CCR1 activation
Experimental: as §1, with “CCR1” for “Cellular NanoBiT β-arrestin recruitment assays: Chemokine-induced β-arrestin-2 recruitment to chemokine receptors CCR1”
as §2, §3
27, 28 CCR1 structure was optimized using the Quickprep and structure preparation wizard in MOE 24 using CHARMM27 forcefield. The protein was saved in mol2 format and loaded in GOLD.25, 26 The amino acids defining the IABS were listed in a text file to define the docking cavity. 50 GA runs were performed for docking CCR2-RA-[R] (4-[R]) and SN_12 (43), with the generated solutions clustered based on their RMSD with the threshold set to 0.75 Å using the complete linkage method. Docking runs were performed using ChemScore. Flexibility of amino acids Lys63ICL1, Arg1313.50, Leu2406.36 and Arg3078.49 was taken in consideration in the docking runs, with conformational sampling of their side chains being done by the rotamer libraries implemented in GOLD.25, 26 For the docking studies with our ligand-linker conjugates (Figure S1), molecular ligand structures were geometry optimized as neutral molecules by means of Avogadro (Version 1.2.0)29 using the Universal Force Field (UFF) and the Steepest Decent Algorithm until convergence (ΔE = 0).
CCR113 was used for docking. The compounds were docked by means of AutoDock Vina 1.1.2.30, 31 An exhaustiveness value of 8 and a search space of 22 x 22 x 22 Å³ was applied around the unliganded intracellular allosteric binding site of CCR1. Twenty docking poses were generated for each ligand and inspected manually and according to the docking score.

T1 sequence (P41597 whole entry): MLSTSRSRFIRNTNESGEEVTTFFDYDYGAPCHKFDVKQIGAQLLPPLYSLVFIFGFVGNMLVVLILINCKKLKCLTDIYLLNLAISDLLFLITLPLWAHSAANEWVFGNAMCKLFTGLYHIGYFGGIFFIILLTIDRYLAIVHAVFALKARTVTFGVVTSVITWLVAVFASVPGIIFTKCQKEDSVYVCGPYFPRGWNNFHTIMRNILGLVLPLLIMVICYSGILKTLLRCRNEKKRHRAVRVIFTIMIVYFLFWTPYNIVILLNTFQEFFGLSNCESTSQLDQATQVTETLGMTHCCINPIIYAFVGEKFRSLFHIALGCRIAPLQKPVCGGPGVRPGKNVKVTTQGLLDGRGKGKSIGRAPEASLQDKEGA

| EC50 [2] [nM] | EC50 [3] [nM] | Substance | EC50 [1] [nM] |
| --- | --- | --- | --- |
|  |  | CCL2: endogenous chemokine ligand, CCR2 agonist | 7.43 |
| 2.93 | 1.01 | CCL5: endogenous chemokine ligand, CCR1 agonist |  |

From PMC11249626, “Fluorophore-Labeled Pyrrolones Targeting the Intracellular Allosteric Binding Site of the Chemokine Receptor CCR1” (ACS Pharmacology & Translational Science, 2024)
